Source: the DeepSol protein solubility set

Assay: soluble on expression in E. coli; label from the status in PepcDB or PDB records

| Sequence | soluble on expression in E. coli |
| --- | --- |
| MMARVEKLRELMKENNLQGFLVTSPYNLRYLTNFTGTTGLAMITLDKAFFVTDFRYTEQAAEQATGFTIVKNTGHIFDEVADLAERLQLDNLAFEETQVSFADYSLLEEILPCELVPVMGLIEELREVKDEEEVAIIEKACAIADQGFAFVLEMIKPGMTEIEVANQLDFFMRSKGASGVSFETIVASGLRSAMPHGVASHKVIEKGELITLDFGCYYEGYVSDMTRTFAIGSIQPKLKEIYDIVLEAQLKVLAEAKPGLTGIQLDAIARDHIASYGYGDAFGHSTGHGIGLEIHEGPNVSFRADKQFVPGNVITDEPGIYLPGIGGVRIEDDLLITAEGNRVLTHAPKELIIL | not soluble |
| MLLLIDNYDSFTYNLYQYFCELGTEVMVKRNDELQLTDIEQLAPSHVVISPGPCTPNEAGISLAVIRHFADKLPILGVCLGHQALGQAFGARVVRARQVMHGKTSAICHSGQGVFRGLNQPLTVTRYHSLVIATDSLPGRFELTAWTERGGEMDEIMGIRHRTLPLEGVQFHPESILSEQGHQLLDNFLKN | not soluble |
| MYSANPTLGYYVPPLDVNNLTDQQTAISIEHLSLYYQQSRALSDISMRIPKGQVTAFIGPSGCGKSTLLRCINRMNDLVEGTRVEGEVKLHGKNIYHPDVDVPTLRRRVGMVFQRPNPFPKSIYENVVYGLRLQGIKNSRALDDAAEQSLRAAALWDEVKHRLHENAFGLSGGQQQRLVIARAIAIEPEVLLLDEPTSALDPISTLTIEELIHDLKTKYTVVIVTHNMQQAARVSDHTAFIHMGKLIEYADTDSIFTSPLKKQTEDYITGRYG | not soluble |
| MTFYYQRLAQQIAHKIYQQQLLPQQKLSSLRDFATQHQVSISTAKSCYEWLEAQGLIYVKPKSGYFVKPKSNVSRLPVSPEFESMPRQVSNLMLQNQIQEASIQNHLIPFGAIQLSPELVPIDGLRRSIQRALKYCKPEDFLYCEKQGHLRLRQALSEHWREDGIYVAPNDIFITNGCMPALSLLIQQLSREGDSILIPTPTFNGQLQLLAGLNRHIIEIPADHTGIDLLRLEQAMQMHQPKLCLLTANYQNPLGYCLADEDKQKIAQLAARYQCIILEDDIYAECSHHGQRPRPIKYWDEAGYVIWVSSVSKSLSSAYRVGWFCIGSQLEPMRPRFLSHNMTVNTPLQLALADFIFSRGYRRHLNQLHPRLMQQVEAYRDVILNAFAPLTIGLSQPQGGYALWLELPDNINSVTLYEVAQQQGISIVPGTVFGEDQRYGHFIRLSVGHALQNEHHAAIIFLADWVKQHC | not soluble |
| MNDGDETLTAGAQGRQFGPLGTALVIIPTYNEAENIKSIVGRVRASVPEAHVLVADDNSPDGTGKLADELAVEDDQVHVLHRKGKEGLGAAYLAGFRWGLDNGYGVLVEMDADGSHRPEELPRLLTALKGADLVLGSRWVPGGRVVNWPKSREFISRGGSLYSRLALDLPQRDITGGYRAFRRETLEGLGLDEVASQGYCFQVDLARRTVKAGYHVVEVPITFVEREFGDSKMSRDILVEALWRVTTWGVGERVGRITGRGPKSSLEHHHHHH | not soluble |
| MGSDKIHHHHHHMETQTRKHSEQKHNSFNNSLEVWKLCFSYPDFVFVSCFNNSLEVWKPGKTLTYDSATNGFNNSLEVWKHSSEALFKAEFRRFNNSLEVWKHHRARRRTLLLPGFNNSLEVWKLIDFKYDSSHYSGFNNSLEVWKPFVLELPDACDCTCFNNSLEVWKPHHRGDSLIRCRVSIIP | not soluble |
| MGSDKIHHHHHHMLSLGLADSRAISKANSGSERHVREVIKRLSLRYKLYYLPTTHAFLDAISEDQLKEIKKFAKVPSFFEYLLDKKLGKVSLLRELFTFSPLAKELVREYEREIGILDFIYVPHTYRIQLMPSILFSKLSRGKYGMLLMTDPHNSLLEKESFFKCVNVWSKIWFSRKSAIEFCSFQRLQNIAFLLKAIKTKPSFISVMNKCALNYTGLPKYFNTKVLSPPHAFNNLALKYRNFDKEDYLVFLGRINTAKGANEALEVGKHVKLKMIGYKEQEFIVKQARSFGIEVIENVSEEEKFEILSKARALVLPSHQESFSVTILEALAVGTPVITYDLPSLTSTYNFKPVFFVKEFDVKGLVNTALEVYNMKKIEEMFNDERLEEFIKMHSSWDNVSNAVDKLITEAIQE | not soluble |
| MGHHHHHHSHMIQYIPQRPPIVMISTLVSAEKNVTETELEIPAHGLFVKDGVLHEPGLIENVAQTAAAGVGYACTLTSQPVPVGFIGAVKNLEIDYLPKVGDVLETRVEVLEEIFDMTLIKGESFVKGKRVLTCEMKIVLKK | not soluble |
| MSKILVIAEHRRNDLRPVSLELIGAANGLKKSGEDKVVVAVIGSQADAFVPALSVNGVDELVVVKGSSIDFDPDVFEASVSALIAAHNPSVVLLPHSVDSLGYASSLASKTGYGFATDVYIVEYQGDELVATRGGYNQKVNVEVDFPGKSTVVLTIRPSVFKPLEGAGSPVVSNVDAPSVQSRSQNKDYVEVGGGNDIDITTVDFIMSIGRGIGEETNVEQFRELADEAGATLCCSAPIADAGWLPKSRQVGQSGKVVGSCKLYVAMGISGSIQHMAGMKHVPTIIAVNTDPGASIFTIAKYGIVADIFDIEEELKAQLAA | soluble |
| GPGSMSTLKEVNGRLNTQPFVSGFSPSSEDARIFNEMFGSNVNVIQWVARMASYYQAERDEILNAGTEKKATEPAKKAAAPAPAAAAAAEEEDDIDLFGETTEEEKAALEAKKAKDAEKKKAKKEVIAKSSILFDIKAWDDTIDLEALAQKLHAIQRDGLIWGDHKLVPVAFGVKKLQQLIVIEDDKVSGDDLEEMVMGFEDEVQSMDIVAWNKI | soluble |
| MGSDKIHHHHHHMADPQTLDKIIDKTLDTVGKSREQIFEISEQSRNEYVSLEQELQEVRMKVAEIIDQSDRAEVHARFARNRLAEVSKQFHRYSNEEIRKVYEQANELQVKLALLQQEEQQLRDRRDAIERRLLNLKDTIERAEELVGQMTVVYNFLTGDLRQVGEALEDAREKQAFGLQIIQAQEEERRKLSREIHDGPAQMMANVLLRSELVERIYHDKGIDEALKEIRDLRKMVKSSLAEVRRIIYDLRPMALDDLGLIPTLKKYVKTFEEHTGIFVDFKHIGKGERFPEHVEIALFRLVQEALQNTRKHAKASHVHVKIEEQKTKFTVVIKDNGKGFDQTEKKEGSFGLVGMKERVNMLKGQLVIRTKPNDGTTIIISIPITTEE | not soluble |
| EQALSDQLRFVEALTDCMPPPLYVRDVNGRMLSCNRSYLQSVGLSSEEVMNRTVLELPMENFETAPEFHRSYLMAMREGRTIEAVYPVALGGRERWIDHWIQPFRDSSGTIRGVICGWLDITEHRQLIDELEEAKNLADEASRAKTTFLATMSHEIRTPMNAVIGILELALKRAETGRVDRSSIEIAYASAKSLLELIGDILDIARIESGRLSLSPKRANLRELVESVARVFEGLARQKRLSLVLEIDSSINGDVLLDAMRFKQILSNLVSNAIKFTDEGSIRIRIDGRQVEPSLLQVNLCVEDTGIGISLGDQQQLFRPFAQVNRNLQNTEGTGLGLVISRSLCEMMGGRLVMSSELGQGTRIDVELRLQVLEPIVENVRAIPLGSRQARRLQVLVVDDHAVNRQILHQQLSFLGHDVEEAENGLSALNLWHGQPFDMVITDCHMPLMSGSDLARSIRQEERENGEEPVVIIGLTADAQPEEIERCIQAGMNECLIKPIGLDVLEERLLALGFAADELPVTIDAEPVAIPTAPRLYDLDSLHALTGGEPTMLRRLLDELLTSNRKDLETLEGLVQRQETGELAELAHRIKGAARVVRGEQLVESCRRLEDACLSPNASFAWVEECAVGVKLAILALDESLVEEC | not soluble |
| MSSLDNAPLLELDVQEWVNHEGLSNEDLRGKVVVVEVFQMLCPGCVNHGVPQAQKIHRMIDESQVQVIGLHSVFEHHDVMTPEALKVFIDEFGIKFPVAVDMPREGQRIPSTMKKYRLEGTPSIILADRKGRIRQVQFGQVDDFVLGLLLGSLLSETDET | soluble |
| MKISLSTSLFSIEQKVEYFNLNYQSLSDFSVVAKLNYTFTWYGNDFSIGFAPKKGEKLYFDLFFTFKASPNHPFAAENFKPDSEAIDFYVSFSWRLEGKDEVSKKLFELSVFGRARAFQIDDYKINLFSYLVYVIR | soluble |
| MTAFVHTLSDGMELTVEIKRRAKKNLIIRPAGTHTIRISVPPCFSVSALNRWLYENEAVLRQTLAKTPPPQTAENRLPESILFHGRQLALTAHQDTQILLMPSEIRVPEGAPEKQLALLRDFLERQAHSYLIPRLERHARTTQLFPAPSSLTSAKTFWGVCRKTTGIRFNWRLVGAPEYVADYVCIHELCHLAHADHSRAFWALTRRFAPYTPEAKQWLKIHGRELFALGLEHHHHHH | not soluble |
| MAHHHHHHMRRVIHGEVRHHNTDTNNTRIPWDFTMASYEEINNVILPKFPRSRRRSAIIPLLHLAQRQQGGYIPVTAMYKIARICEVPPMQVFETVTFYSMFNRQPVGKYHIQFCVTTPCMLCGCDELVHRTEAYLNVKMHGTTRDGLITLGEMQCLGACVNAPMLVVSDYSRPPHFSYDFVEDLTWDSVKELIENLREGRPFKVGTCREDRRWSEPAGGRTSIFMKEPPKPYCRDLDAKPVQPGASTGGAAKK | not soluble |
| MSQILNVTLITETFTPEINGVANTLGRLCDGLRLRGHRVELVRPRQSDEINSGAADDLMLCRGWPIPGYPGLQWGQSSMHKLLRRWQRRRPDVLYIATEGPLGLSALRAARRLGIAVISGFHTNFPQYTQQYGMGFITRLLTHYLRWFHNRSRVTLVPSVSQKVELERRGFERIELLSRGVDSQLFNPSRCSQALRESWGLQTGDIGVIHVGRLAPEKNLGLLKTGFEALKSSYPQRTIKLIVVGDGPQRSELEQQIPDAIFCGTLRGEVLATHYASADMFLFPSLTETFGNVVLEALASGLGVVAYDEAAAGQHIRHGHNGALAMPGDETAFVDAARWLLEDSENLRRVRLNARQHASRQGWTAIIDQFERQLRDACPSESSKTLRQTSDKTIRPVSSMPLDLEHHHHHH | not soluble |
| MSLTQMNYAKEGIFTKEMQIVAQKENLSKDFLLENIACGKIIIPANINHKSLDPNGIGFGLRTKVNVNLGVSNDCVDYSEEMKKVELAHKFGIEAIMDLSNYGKTSRFRDELVNVSKAMIGTVPVYDAVGFLEKDLKQINAKDFLDVVYHHAKSGVDFMTIHAGINSRAAHIFKQSKRLTNIVSRGGSVLYAWMMMKDAENPFFEYYDDLLDICLKYDVTLSLGDALRPGSTHDASDGAQISELIELSLLTQRAWDVGIQVMIEGPGHMAINEIEANMQLEKRLCKGAPFYVLGPLVTDIGAGYDHISGAIGGAVAAASGADMLCYVTPAEHLRLPNLEDVREGIVATKIAAHAGDIAKLPKERARDDEMSKARQEIDWEKMFKLAIDGEKAKKMFNERRPDDLNSCSMCGKMCAMNTMNQILKGEDVSLAEGHHHHHH | soluble |
| MGSDKIHHHHHHMHSSEIRYFLVVATTGSLSAASQHLFVAVSAISRQIQRLEERIGVPLFERHARGMVLNDAGRILENHVRKSMMDMDAAVAEIQGLKASRRALLRIGCTEGMAFDLLPTLFARFRQHDPDTTFALKVDSAMQVSQMIRNGEVDIALQFALAPEQGVNVELALPAPLMLLMSDEHPLAQQSIQLADLHPFPLALPESSTTLRQLFDLSCRMNGTFLEPTLCCNNFTTLYYYAMSTPGAVTACSFYSVMYKCLQEPMRLKPLNIKQLDQRSLQIQTLAGKAHAPQQQAFLDFMMAELRQGEAYYLSHMATDMV | not soluble |
| MAKISEIMLLQQPEQPALAIEVQTYMKGMSQAIGENFVRIDSLFKKQGEVTTDIPFVEYPDFESLTEDRIKMIIGLKSSKPLQGDEKIQSVILPARRIVVCLHRGNYNELAQLYNEMTEWIKTNGYKASGTSIEYYYSNPDVPEEEHVTRVEMPLL | not soluble |
| MQVIAFIAPLIDKGMDPLTGVPIRQEVPRLMERTFQENQAETYVLFLINLDRFKLVNDSLGEGYGDQVLQTLVRRLLWQLPNQQWIARVSGDEFIACAAIKGELPKKETLATYISSIIQQPFQVDEVQFTMTASIGAAVYPMDGKSVEMIWNSLERALRHAKARGGNCVSWFCQELKDEWIHPFRLENDLRRAVENQELEHHHHHH | not soluble |
